Test: soluble on expression in E. coli; label from the status in PepcDB or PDB records

Sequence | soluble on expression in E. coli
MSLKNLQCELDWERRFDGMQQHLGQHLLSGCFYDLFGANTCGFHLGKEISTVDIVGFLDEKTIREAEKEANRLIFENLEVKSYAPSKKELKKVKTRRALPKTDEEIRIVEIVGLDLNACCGVHPRNTRDLQVIKIRRWEKHKNATRIEYVAGNRAVSEGHHHHHH | not soluble
MSLKPTKIFAFGGLEEVGKNMYGIEYDDELIIVDCGIKFSSVELLGIDGIVPNFAYAKANQHKIKALVITHGHEDHIGGIPYLLREVSVPVIYAPLMATKLIEKKLHEHHNLNQYKIVSYNDKSEFSTKHFKIDFYRVCHSIPDAFGVCVQTPNGNIVESGDYRFDFNAGNEELDIHKVVEISRRGIDLFMTETTNAEIPGFSSSEKEIYDNIKNIIKNANGRVILSTFASNVTRISEVIEIAIQHGRKICLLGKSMDNNVSISRDVGYINLKDDDIVESRYVEQHPDNEIMIFCTGSQGEELAALNMLASGRHPWIQLKKTDSIIMSSNPIPGNYAAVERLLNELSKEEGISIYENSPTLKLHASGHATMQEIQLMLSLLRPKYLFPIHGEYKMFTSLKRIAKKCGFDPENVALHKNGQIVYLIDREGHHHHHH | soluble
MSLKQADELRFNEDGLIPAIVQDAASKEVLTLAYMNKESYEKTLETKETWFYSRSRQALWHKGETSGNTQAVKGIRYDCDQDALLVLVEPSGPACHTGSYSCFTKEQTEEQAADRFGIMNELERVIAERQAEMPEGAYTTYLFREGVDKILKKVGEEASEVIIAAKNRDHEELKWEAADLLYHLLVLLREQSLPLDDVLDVLKKRHSEIEEEGHHHHHH | soluble
MSLKQGLQLRLSQQLAMTPQLQQAIRLLQLSTLELQQELQQALESNPLLEQIDTHEEIDTRETQDSETLDTADALEQKEMPEELPLDASWDTIYTAGTPSGTSGDYIDDELPVYQGETTQTLQDYLMWQVELTPFSDTDRAIATSIVDAVDETGYLTVPLEDILESIGDEEIDIDEVEAVLKRIQRFDPVGVAAKDLRDCLLIQLSQFDKTTPWLEEARLIISDHLDLLANHDFRTLMRVTRLKEDVLKEAVNLIQSLDPRPGQSIQTGEPEYVIPDVLVRKHNGHWTVELNSDSIPRLQINQHYASMCNNARNDGDSQFIRSNLQDAKWLIKSLESRNDTLLRVSRCIVEQQQAFFEQGEEYMKPMVLADIAQAVEMHESTISRVTTQKYLHSPRGIFELKYFFSSHVNTEGGGEASSTAIRALVKKLIAAENPAKPLSDSKLTSLLSEQGIMVARRTVAKYRESLSIPPSNQRKQLVEGHHHHHH | soluble
MSLKQLPKREELPENLTWDLTKIFSSDQEFDEKYLELSEELKQSEKHKGTLDQGASQFLNAIEFVLRVYRQTEVIYVYAHLKNDQDTGNTDYQALYARASSLFSKVSEAVSWFEPEILQLSDDQIWQYFKEEPKLEVYRHYIQQIVDNRAHVLSAEQESLLAGAGEIFDASSDTFAVLNNADLVFPTIEGENGEIVQLSHGVYGQLLESTDRRVREAAFKGLYSVYEQFRNTFASTLGTHIKGHNFKAKVRNYSSAREASLSNNHIPESVYDTLVDVVNKHLPLLHRYMELRKRLLEVEKLHMYDLYTPVLGEAPITFTYEEAKEKALEALKPMGEEYMAIVEKAFSERWIDVVENKGKRSGAYSSGSYDTNPYILLNWHDTLDQLFTLVHEMGHSVHSYFTRSNQPYVYGDYSIFLAEIASTTNENILTEYLLETEKDPRVRAYVLNHYLDGFKGTVFRQTQFAEFEHFMHTEDEKGVPLTSEYLSDSYGKLNAKYYGPAVEEDPEIKFEWSRIPHFYYNYYVFQYSTGFSAASALAKKILNQEPEALENYLAYLKAGNSDYPVEVMKKAGVDMTQAAYIEDAMSMFEQRLNELEELIDREGHHHHHH | soluble
MSLKRIVVANDLVGVGKVALSASIPLMASCLLEQVLLPTCLLSSHTGGGQNPVKHTTSSILDVFLTDWDNKRIKFDGIFIGYFTTTRDGQKLLEWLSRKQLPLILDPIMADNGKLYQGFSQKHIEIMIKLTQKAELVLPNISEACLLTQTAYLAKNYDEEDIRQVARKLAKLGPKQVVISGISFEEGSIGFAYYQSDSDQLTFHFGKQFPYHFYGTGDIASAIITAGFYYQLPLTQILDLVVSFLEKVLQNTLTLKRDLILGVAYESHLNYLTKSFKKLLEEKNVISKISEGHHHHHH | soluble
MSLKRSSICYRASKPLIASLVMSVWNAVHLSRRFAALPQAFYTPVHPQPLQNVRWGMWNSRLAQQFGLPEAPNDELLLSLSGQQLPADFSPVAMKYAGHQFGVYNPDLGDGRGLLLAEMATKQGEVFDIHLKGAGLTPYSRMGDGRAVLRSSLREYLCSEAMAGLGIATTRALALMSSETPVYREREERGALLVRLAHTHVRFGHFEHFFYTDQHANLKLLADKVIEWHFPDCVQTSKPYAAWFSQVVERTALMIAQWQAYGFNHGVMNTDNMSILGETFDYGPFAFLDDYDPNFICNHSDYQGRYAFDQQPRIGLWNLSALAHALSPLIDKDDLEAALGSYSERLNLHFSRLMRAKLGLATQQEGDGELFADFFALLANNHTDYTRFLRELSCLDRQGNEAVIDLVLDREAAKTWLTRYLERAARELGQEGRPISTRERCQAMRQVNPKYILRNYLAQQAIEFAERGDFEEMQRLATVLASPYAEHPEFERYAKLPPEWGKKLEISCSSEGGSHHHHHH | soluble
MSLKRTAEEIKQEVKSLSQQALDAVKKHTHSPEGVKELLNFMSRFPERSFRNQLLIEEQFPGATACLGRAALKKEGIYIKKGEQGNKIFVRKTVKGFYEKGRGFVRETEATPEDKKRIKSGQIEVIKKPYYTIEKVFDITQTQLKPEDYPKIFPNRVFDFQLDAKGQSELQAGIQAVANNIGIQIRDMTESEEGHHHHHH | soluble
MSLKSIAKAQNDFTIFKFGDSEIRVINKCGEPWFVAKDVCDALALTNSRKALTALDDDEKGVTLSYTLGGEQNLSIVSESGMYTLVLRCRDAVNKGSVPHKFRKWVTAEVLPSIRKHGEYVKGKKTTVEERTPLRDAVNMLVGKKGLRNDDAYNMVHQRFGIDSIDELSIEQIPLAVEYIHRVVLEGEFIGKQEKSTNELSAKEANSLVWLWDYANRSQALFRELYPALKQIQSNYSGRCYDYGHEFSYVIGMARDVLINHTRDVDINEPDGPTNLSAWMRLKNKELPPSPHHYEGHHHHHH | not soluble
MSLKSTDIKIVEAKFSTEEVPFRTPLKFGGRVMDSSVLLNVEVIVETRNGKQGIGIGSMPAGNIWAWPSAVVSPEDSLKAMIEFLKEAVEIANICPEVAHPIDLMYHISAEYHFMAKKLSKRLGLAEEIPELAQLVASSPLDAAIHDGFGRANHINSYNGLSAEYMSHDLTEYLDDQFKGEYLDQYTLRDPKPTLPLYHLVGALDPITEADISERVDDGLPETLGEWIKADGLTHLKIKLSGDNMDWDISRVIAVENEAVKAQGERGQDKWVYSLDFNEKCENVDYVLDFLNKIREQTPAAFDRVQYIEQPTNRDLKANPENKMHEAAKIKPVVIDESLVDYESLLLSRELGYSGVALKACKGQTESLFLGAAAQKFDMFLCVQDLTCCGYSFLHSASLAARIPSIAAIEGNGRQYCPGPNKKWKRSYPGMFNITDGTVKTSELNGDGLGFEGHHHHHH | soluble
MSLKTFTDRWRQLEWDDIRLRINGKTAADVERALNAAHLSRDDLMALLSPAAADYLEPIAQRAQRLTRQRFGNTVSFYVPLYLSNLCANDCTYCGFSMSNRIKRKTLDEVDIQRECDAIRKLGFEHLLLVTGEHQAKVGMDYFRRHLPTIRRQFSSLQMEVQPLSQENYAELKTLGIDGVMVYQETYHEAIYAQHHLKGKKQDFFWRLETPDRLGRAGIDKIGLGALIGLSDNWRVDCYMVAEHLLWMQKHYWQSRYSVSFPRLRPCTGGVEPASVMDEKQLVQTICAFRLLAPEIELSLSTRESPWFRDHVIPLAINNVSAFSKTQPGGYADDHPELEQFSPHDARRPETVASALSAQGLQPVWKDWDSWLGRASQTREGHHHHHH | not soluble
MSLKTKFGKCIYISPSGYKVYQNLLYRWLTLGSEAWQTVINRYIPRRPGLHYLQILTLMARKFPNDCCLLGLGGAGIAHLLGAQKTIRSIVAVESSEEVIQIAKKFFMTDLIPHFTITHQNARDFVRENKKTFQHMLLDLYDATHFPDECHSMDFFIHCKKQLTDDGFLAVNLANSQEQWALVQLIKKQFPSNIIIPIKKCANIVVIASKNDNKDLFIKQVRNTNEIKKITWVKDWGYVAEYEGHHHHHH | not soluble
MSLKTPAREIITDYAQAHFRYFRTADGTVYAQRNGHPVARPIRSQGTTGSHRQELMVGLFKDGIGVFNGTAMKEALDLIEALALTEDVQPVHIRVAPGFDGATWLDLGRDDGRSVRIHPTGWDIAIPDPREVCWRRTQLTGELPVPIKDTDGKGIDLLLRLCNFATAETECLAIAWLIGCLGPSVPVPAPFLTGPQGAGKSTGGRMLVRIIEGMTGDLRRAPKDEENLIAAVAAGWVTALDNLSHMTPDLSDAMCCIVTGAENVKRALFTDGDVFRARYRRPLLLTGIDVGVIRPDLAERLLPLRLERPKVRRTEAELWTEYAEVLPVVLGSLLDLAVKVRAVEVETPTDLRMADFAHLCAQLDAATGFGALAAYRAALDDLNDDVIEGDLLAQTVLRHAADLEPGTTQRMTSTEWLHCLSQLYTGEEFRPLPKGWPTTGKVLSDRLKRLQPTLAARGVLIDSGRTYEGRYLEMTRAPATEGHHHHHH | not soluble
MSLKTSKTSTVVLIVPTTWSPFFAELVYRMQVELDRIGFKMILANSHADPDEEEEILRMASLNQVTGVITMSYSNIYNFINIGKKLNLVSIERFISEDVPLITSDNYGGGQLAAEKLITFGSKRFLLLRRKTNHYNATDKRTEGFLHIMKENNLPVDIFEASLKENYIEEFIHYLKTHFSGDVLTFDGIFGVTDEYAVIAKQVLFELNPSYLNKVNIIGFDGSKSQEKGSYQIASIRQPVEAMVKAAVKVLKKLIDGEEVPSHYSKVFDVSFVEPERLVEGHHHHHH | soluble
MSLKVAKDLVVSLAYQVRTEDGVLVDESPVSAPLDYLHGHGSLISGLETALEGHEVGDKFDVAVGANDAYGQYDENLVQRVPKDVFMGVDELQVGMRFLAETDQGPVPVEITAVEDDHVVVDGNHMLAGQNLKFNVEVVAIREATEEELAHGHVHGAHDHHHDHDHDGCCGGHGHDHGHEHGGEGCCGGKGNGGCGCEGGSHHHHHH | soluble
MSLKVAVVGLGDISHVHIHAIQNSTKAQLVAVCDENEKLSQQVPHVNYYNDLQTMIDSETLDCVHICLPHYLHVSATTTCVENGINVLQEKPLAVNAKEGLELVKLQRKYPNIKIGICFQNRYNATFQALQEIVESKTYGEVIGVKGLVTWFRPESYYTDKPWRGQMATAGGGVLINQSIHTLDLIQLLCGKIASIKGTVSQLLDYDIEVEDTASAHIKFENKANGMFFATNANFGNSNVELQIIFENEKFTIKDNILTRFNEAGEKIKIAEDEKMTGNKTYYGPSHGKLINAFYDCINNDSNNYVHPKDALTSIAMIDAIQKSSESLKTVQFDSEGHHHHHH | soluble
MSLKVLKKEELVPTLYQLFSQAKEKVLVVSAWIRGSIFKELLSLLPENVQLEVIVRAGNLSDMDITDEAFFRETKKKGGRILLNPKLHSKFLIIDERYAVVGSSNITFMGLYPEGNVETNVLIEEKEKVKELLEFYENLKEESVDYTDVVGYAVSSRSPKEAEIVLLEDLKEQTYLGIQGEEFFLCRLSNVSGKKETREDALNRILSSEVWDWKVAALFAHLYERPEIKTGRLEILGEYEKERNLFKTPTKSVESGSLVKKLEPESEELKRILFKNHSGYDMKYPTYLGKLYNTEVKAYLDMDKVLGMHMAVLGTTGSGKTTFVKKILKNFKESEVIIFDIYGEYAQELGAKEVIVENVLMPISVEDVKDYLKEAGSTLEERSTEEKEFFSVFRRALKPDIEATELKEKSFKEIYEEAVKNLHSLHLKQDAQSVYEHLERTYSRGALEQQPKVLKEVVDFLNSEERVKVFNFKEVDITETKVNLTGLILKEIFIRAKKDRKPRLIVIEEAQNVAPERGTGDVPSGKENVAFVYAKKIAMEGRKLNLGLIAITQRPANLSKFILSQLNTQVIFKLITKNDLDAVSPFFEYSKEDIFRLLPFLKPGTAFVSGLAVPFSFLFQMEEIPYYEGHHHHHH | not soluble

From the DeepSol protein solubility set
